US20050204417A1 (WASHINGTON STATE UNIVERSITY RESEARCH FOUNDATION, published 2005)

B1: His-tagged AgGPPS2 truncated protein (SEQ ID NO:12) (enzyme)
chain: MFDFNKYMDSKAMTVNEALNKAIPLRYPQKIYESMRYSLLAGGKRVRPVLCIAACELVGGTEELAIPTACAIEMIHTMSLMHDDLPCIDNDDLRRGKPTNHKIFGEDTAVTAGNALHSYAFEHIAVSTSKTVGADRILRMVSELGRATGSEGVMGGQMVDIASEGDPSIDLQTLEWIHIHKTAMLLECSVVCGAIIGGASEIVIERARRYARCVGLLFQVVDDILDVTKSSDELGKTAGKDLISDKATYPKLMGLEKAKEFSDELLNRAKGELSCFDPVKAAPLLGLADYVAFRQNLEHHHHHH
notes: N-terminally truncated (leader removed) with C-terminal His6 tag, expressed in E. coli; homodimer by gel filtration
B2: His-tagged AgGPPS3 truncated protein (SEQ ID NO:20) (enzyme)
chain: MFDFNKYMLSKAMAVTEALDKAIPHSYPQKIHESMRYSLLAGGKRVRPVLCIAACELVGGREELAMPTACAMEMIHTMSLIHDDLPCMDNDDLRRGKPTNHKVFGQDTALLAGDALHAFAFEHIVAFTSKSVGSDGILRAVTELARATGPQGIMGGQIVDIASERDAFVDLQTLEWIHIHKTAVLFECATVCGAIIGGASGDEIERIRRFARYLGLLFQVVDDILDVTKSSEDLGKTAGKDLVSDKATYPKLMGLEKAKGFSLELLNKAKEELSCFDPMKAAPLFGLADYMALRQNLEHHHHHH
notes: as for B1
B3: His-tagged AgGPPS1 truncated protein (SEQ ID NO:16) (enzyme)
chain: MFDFKEYLHSKAISVNEALERAVPLRYPEKIHEAMRYSLLAGGKRIRPILTIAACELVGGSEELAMPTACAMEMIHTMSLIHDDLPSMDNDDLRRGKLTNHKVFGEGTAVLAGDALLSFAFEHIAVSTRKTVASHRVLRVVSELGKAIGSQGVAGGQVADITSEGDPSVGLETLEWIHIHKTAVLLECAVVSGAIIGGASENEIERTGRYARCVGLLFQVVDDILDVTRSSEELGKTAGKDLVSDKATYPKLMGLEKAKEFADELLDRAKEELSCFNPAKAAPLLGLADYIALRQNLEHHHHHH
notes: as for B1

Molecular target: the molecule itself
Test: gel filtration on calibrated Superdex 200; self-association of the subunit
Method: Molecular weight determination and kinetic evaluation. The molecular weight of GPP synthase was determined by gel filtration chromatography on a calibrated XK 16/70 column of Superdex 200 (Amersham Biosciences) as previously described (C. Burke and R. Croteau, J. Biol. Chem. 277:3141-3149, 2002). For kinetic evaluation, the standard prenyltransferase assay was performed (C. Burke and R. Croteau, J. Biol. Chem. 277:3141-3149, 2002) but the reaction was terminated after 4 min. to ensure linearity in the rate measurements. For preparative incubations, the reaction time was extended to 8 min., and all assays contained from 0.25 to 1.0 μg of purified protein.

Binding result, binds:
B1, B2, B3
